Data: publication PMC5291255

Biological target: T1, nPfh1-K338A (His6-Trx-nPfh1-K338A-FLAG) (Schizosaccharomyces pombe, UniProt Q9UUA2 =MG+22-805, K338A;internal_change)
T1 sequence: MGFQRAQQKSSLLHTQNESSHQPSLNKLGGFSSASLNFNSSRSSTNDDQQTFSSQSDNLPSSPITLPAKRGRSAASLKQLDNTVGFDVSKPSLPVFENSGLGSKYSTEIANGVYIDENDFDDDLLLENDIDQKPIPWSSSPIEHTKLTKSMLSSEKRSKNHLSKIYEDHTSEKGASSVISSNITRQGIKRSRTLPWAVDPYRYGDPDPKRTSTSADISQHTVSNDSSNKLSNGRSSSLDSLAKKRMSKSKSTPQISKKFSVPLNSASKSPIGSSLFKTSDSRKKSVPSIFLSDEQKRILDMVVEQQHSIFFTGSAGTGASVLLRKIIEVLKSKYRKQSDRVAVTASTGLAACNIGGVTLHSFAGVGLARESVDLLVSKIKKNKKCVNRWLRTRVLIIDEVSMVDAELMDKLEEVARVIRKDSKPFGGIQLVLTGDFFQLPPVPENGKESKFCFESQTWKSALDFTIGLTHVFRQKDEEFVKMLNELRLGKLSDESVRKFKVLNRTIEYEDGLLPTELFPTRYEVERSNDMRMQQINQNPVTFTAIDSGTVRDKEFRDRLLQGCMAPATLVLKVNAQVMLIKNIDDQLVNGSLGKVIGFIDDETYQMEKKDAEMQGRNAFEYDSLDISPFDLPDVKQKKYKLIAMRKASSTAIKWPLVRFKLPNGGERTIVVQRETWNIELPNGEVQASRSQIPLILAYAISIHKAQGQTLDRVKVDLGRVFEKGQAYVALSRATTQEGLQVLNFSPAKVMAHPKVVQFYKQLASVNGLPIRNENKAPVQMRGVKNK
Experiment: EMSA

AAAAAAAAAA (ssDNA) [Poly(A)10]
binding result: no binding
